In US20200024322A1 (Eli Lilly, published 2020):
Numbered stars: 1 amine (or outer) side, 2 acyl side, 3 side chain; on linkers, the order of the positions; unused ones are H or OH. Square brackets hold non-standard residues; d marks the D form. Side chains are listed from the residue outwards. Ends that are not written are not given here. * marks the point of attachment. C20 diacid = O=C(O)CCCCCCCCCCCCCCCCCCC(=O)*; γGlu = O=C(O)[C@H](CCC(=O)[*:2])N[*:1]; αMeL = CC(C)C[C@](C)(N)C(=O)O; AEEA = NCCOCCOCC(=O)O; Aib = CC(C)(N)C(=O)O

Legend:
[1] = target: T1, human GIP receptor (human, UniProt P48546 22-466); assay: SPA, [125I]-GIP displacement, hGIPR membranes
T1 construct: whole, on cells; Used as crude membranes of stably transfected CHO cells; also called hGIPR
T1 sequence (looked up): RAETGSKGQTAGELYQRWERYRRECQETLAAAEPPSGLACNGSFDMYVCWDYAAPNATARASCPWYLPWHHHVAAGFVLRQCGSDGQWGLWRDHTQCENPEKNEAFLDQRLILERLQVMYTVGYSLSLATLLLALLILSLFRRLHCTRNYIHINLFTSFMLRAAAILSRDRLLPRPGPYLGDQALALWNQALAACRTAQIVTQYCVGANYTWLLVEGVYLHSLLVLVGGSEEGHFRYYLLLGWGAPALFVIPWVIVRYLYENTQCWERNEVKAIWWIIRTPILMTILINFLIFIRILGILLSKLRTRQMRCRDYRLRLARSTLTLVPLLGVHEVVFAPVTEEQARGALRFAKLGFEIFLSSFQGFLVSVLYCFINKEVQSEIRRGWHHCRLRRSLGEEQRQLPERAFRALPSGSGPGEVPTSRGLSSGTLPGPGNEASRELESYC

[2] = target: T2, human GLP-1 receptor (human, UniProt P43220 24-463); assay: SPA, [125I]-GLP-1 displacement, hGLP-1R membranes
T2 construct: whole, on cells; Used as crude membranes of stably transfected HEK293 cells; also called hGLP1R; hGLP-1R

[3] = target: T3, human glucagon receptor (human, UniProt P47871 26-477); assay: SPA, [125I]-Gcg displacement, hGcgR membranes
T3 construct: whole, on cells; Used as crude membranes of stably transfected HEK293 cells; also called hGcgR; hGLcgR
T3 sequence (P47871 26-477): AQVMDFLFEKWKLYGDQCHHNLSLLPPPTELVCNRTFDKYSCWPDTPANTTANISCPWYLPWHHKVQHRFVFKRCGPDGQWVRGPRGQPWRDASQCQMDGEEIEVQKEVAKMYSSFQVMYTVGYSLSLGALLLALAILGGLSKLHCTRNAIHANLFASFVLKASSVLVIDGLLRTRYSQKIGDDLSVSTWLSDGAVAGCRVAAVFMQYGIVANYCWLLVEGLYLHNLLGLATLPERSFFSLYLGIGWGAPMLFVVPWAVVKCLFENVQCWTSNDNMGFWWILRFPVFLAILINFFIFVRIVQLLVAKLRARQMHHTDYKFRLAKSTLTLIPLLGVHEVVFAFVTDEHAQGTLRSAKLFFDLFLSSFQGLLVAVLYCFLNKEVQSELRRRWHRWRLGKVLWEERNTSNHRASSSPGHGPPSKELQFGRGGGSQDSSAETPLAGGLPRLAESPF

B1: Example 13 (peptide)
peptide: Y[Aib]EGTFTSDYSILLD[Aib]IAQK([AEEA-AEEA-γGlu-C20 diacid])AFIEYLIEGGPSSGAPPPS-NH2
modifications: N-terminus assumed
SMILES: CC[C@H](C)[C@H](NC(=O)[C@H](CC(C)C)NC(=O)[C@H](Cc1ccc(O)cc1)NC(=O)[C@H](CCC(=O)O)NC(=O)[C@@H](NC(=O)[C@H](Cc1ccccc1)NC(=O)[C@H](C)NC(=O)[C@H](CCCCNC(=O)COCCOCCNC(=O)COCCOCCNC(=O)CC[C@H](NC(=O)CCCCCCCCCCCCCCCCCCC(=O)O)C(=O)O)NC(=O)[C@H](CCC(N)=O)NC(=O)[C@H](C)NC(=O)[C@@H](NC(=O)C(C)(C)NC(=O)[C@H](CC(=O)O)NC(=O)[C@H](CC(C)C)NC(=O)[C@H](CC(C)C)NC(=O)[C@@H](NC(=O)[C@H](CO)NC(=O)[C@H](Cc1ccc(O)cc1)NC(=O)[C@H](CC(=O)O)NC(=O)[C@H](CO)NC(=O)[C@@H](NC(=O)[C@H](Cc1ccccc1)NC(=O)[C@@H](NC(=O)CNC(=O)[C@H](CCC(=O)O)NC(=O)C(C)(C)NC(=O)[C@@H](N)Cc1ccc(O)cc1)[C@@H](C)O)[C@@H](C)O)[C@@H](C)CC)[C@@H](C)CC)[C@@H](C)CC)C(=O)N[C@@H](CCC(=O)O)C(=O)NCC(=O)NCC(=O)N1CCC[C@H]1C(=O)N[C@@H](CO)C(=O)N[C@@H](CO)C(=O)NCC(=O)N[C@@H](C)C(=O)N1CCC[C@H]1C(=O)N1CCC[C@H]1C(=O)N1CCC[C@H]1C(=O)N[C@@H](CO)C(N)=O
Ki [1]: 0.296 nM | Ki [2]: 31.1 nM

B2: Example 29 (peptide)
peptide: Y[Aib]EGTFTSDYSILLDK([AEEA-AEEA-γGlu-C20 diacid])IAQ[Aib]AFIEYLIEGGPSSGAPPPS-NH2
modifications: N-terminus assumed
SMILES: CC[C@H](C)[C@H](NC(=O)[C@H](CCCCNC(=O)COCCOCCNC(=O)COCCOCCNC(=O)CC[C@H](NC(=O)CCCCCCCCCCCCCCCCCCC(=O)O)C(=O)O)NC(=O)[C@H](CC(=O)O)NC(=O)[C@H](CC(C)C)NC(=O)[C@H](CC(C)C)NC(=O)[C@@H](NC(=O)[C@H](CO)NC(=O)[C@H](Cc1ccc(O)cc1)NC(=O)[C@H](CC(=O)O)NC(=O)[C@H](CO)NC(=O)[C@@H](NC(=O)[C@H](Cc1ccccc1)NC(=O)[C@@H](NC(=O)CNC(=O)[C@H](CCC(=O)O)NC(=O)C(C)(C)NC(=O)[C@@H](N)Cc1ccc(O)cc1)[C@@H](C)O)[C@@H](C)O)[C@@H](C)CC)C(=O)N[C@@H](C)C(=O)N[C@@H](CCC(N)=O)C(=O)NC(C)(C)C(=O)N[C@@H](C)C(=O)N[C@@H](Cc1ccccc1)C(=O)N[C@H](C(=O)N[C@@H](CCC(=O)O)C(=O)N[C@@H](Cc1ccc(O)cc1)C(=O)N[C@@H](CC(C)C)C(=O)N[C@H](C(=O)N[C@@H](CCC(=O)O)C(=O)NCC(=O)NCC(=O)N1CCC[C@H]1C(=O)N[C@@H](CO)C(=O)N[C@@H](CO)C(=O)NCC(=O)N[C@@H](C)C(=O)N1CCC[C@H]1C(=O)N1CCC[C@H]1C(=O)N1CCC[C@H]1C(=O)N[C@@H](CO)C(N)=O)[C@@H](C)CC)[C@@H](C)CC
Ki [1]: 0.377 nM | Ki [3]: 132 nM | Ki [2]: 8 nM

B3: Example 6 (peptide)
peptide: Y[Aib]EGTFTSDYSILLDKK([AEEA-AEEA-γGlu-C20 diacid])AQ[Aib]AFIEYLLEGGPSSGAPPPS-NH2
modifications: N-terminus assumed
SMILES: CC[C@H](C)[C@H](NC(=O)[C@H](Cc1ccccc1)NC(=O)[C@H](C)NC(=O)C(C)(C)NC(=O)[C@H](CCC(N)=O)NC(=O)[C@H](C)NC(=O)[C@H](CCCCNC(=O)COCCOCCNC(=O)COCCOCCNC(=O)CC[C@H](NC(=O)CCCCCCCCCCCCCCCCCCC(=O)O)C(=O)O)NC(=O)[C@H](CCCCN)NC(=O)[C@H](CC(=O)O)NC(=O)[C@H](CC(C)C)NC(=O)[C@H](CC(C)C)NC(=O)[C@@H](NC(=O)[C@H](CO)NC(=O)[C@H](Cc1ccc(O)cc1)NC(=O)[C@H](CC(=O)O)NC(=O)[C@H](CO)NC(=O)[C@@H](NC(=O)[C@H](Cc1ccccc1)NC(=O)[C@@H](NC(=O)CNC(=O)[C@H](CCC(=O)O)NC(=O)C(C)(C)NC(=O)[C@@H](N)Cc1ccc(O)cc1)[C@@H](C)O)[C@@H](C)O)[C@@H](C)CC)C(=O)N[C@@H](CCC(=O)O)C(=O)N[C@@H](Cc1ccc(O)cc1)C(=O)N[C@@H](CC(C)C)C(=O)N[C@@H](CC(C)C)C(=O)N[C@@H](CCC(=O)O)C(=O)NCC(=O)NCC(=O)N1CCC[C@H]1C(=O)N[C@@H](CO)C(=O)N[C@@H](CO)C(=O)NCC(=O)N[C@@H](C)C(=O)N1CCC[C@H]1C(=O)N1CCC[C@H]1C(=O)N1CCC[C@H]1C(=O)N[C@@H](CO)C(N)=O
Ki [1]: 0.0835 nM | Ki [3]: 55.8 nM | Ki [2]: 6.71 nM

B4: Example 56 (peptide)
peptide: Y[Aib]EGTFTSDYSI[αMeL]LDEK([AEEA-AEEA-γGlu-C20 diacid])AQHAFIEYLIEGGPSSGAPPPS-NH2
modifications: N-terminus assumed
SMILES: CC[C@H](C)[C@H](NC(=O)[C@H](CC(C)C)NC(=O)[C@H](Cc1ccc(O)cc1)NC(=O)[C@H](CCC(=O)O)NC(=O)[C@@H](NC(=O)[C@H](Cc1ccccc1)NC(=O)[C@H](C)NC(=O)[C@H](Cc1c[nH]cn1)NC(=O)[C@H](CCC(N)=O)NC(=O)[C@H](C)NC(=O)[C@H](CCCCNC(=O)COCCOCCNC(=O)COCCOCCNC(=O)CC[C@H](NC(=O)CCCCCCCCCCCCCCCCCCC(=O)O)C(=O)O)NC(=O)[C@H](CCC(=O)O)NC(=O)[C@H](CC(=O)O)NC(=O)[C@H](CC(C)C)NC(=O)[C@](C)(CC(C)C)NC(=O)[C@@H](NC(=O)[C@H](CO)NC(=O)[C@H](Cc1ccc(O)cc1)NC(=O)[C@H](CC(=O)O)NC(=O)[C@H](CO)NC(=O)[C@@H](NC(=O)[C@H](Cc1ccccc1)NC(=O)[C@@H](NC(=O)CNC(=O)[C@H](CCC(=O)O)NC(=O)C(C)(C)NC(=O)[C@@H](N)Cc1ccc(O)cc1)[C@@H](C)O)[C@@H](C)O)[C@@H](C)CC)[C@@H](C)CC)C(=O)N[C@@H](CCC(=O)O)C(=O)NCC(=O)NCC(=O)N1CCC[C@H]1C(=O)N[C@@H](CO)C(=O)N[C@@H](CO)C(=O)NCC(=O)N[C@@H](C)C(=O)N1CCC[C@H]1C(=O)N1CCC[C@H]1C(=O)N1CCC[C@H]1C(=O)N[C@@H](CO)C(N)=O
Ki [1]: 0.148 nM | Ki [2]: 10.3 nM

B5: Example 134 (peptide)
peptide: XXEGTXTSDYSIXLDEKAQXEFIEYLIEGGPSSGAPPPS
modifications: DesTyr1; Aib2; αMeF(2F)6; αMeL13; K17((2-[2-(2-Amino-ethoxy)-ethoxy]-acetyl)2-(γ-Glu)-CO-(CH2)18-CO2H); Aib20; C-terminal NH2
Ki [1]: 0.14 nM | Ki [3]: 60.5 nM

B6: Example 210 (peptide)
peptide: YXEGTXTSDYSIXLDXKAQXEFIXYLIEGGPSSGAPPPS
modifications: Aib2; αMeF(2F)6; αMeL13; Dap16; K17((2-[2-(2-Amino-ethoxy)-ethoxy]-acetyl)2-(γ-Glu)-CO-(CH2)16-CO2H); Aib20; D-Glu24; C-terminal NH2
Ki [1]: 0.0399 nM | Ki [2]: 1.58 nM

B7: Example 209 (peptide)
peptide: YXEGTXTSDYSIXLDXKAQXEFIXYLIEGGPSSGAPPPS
modifications: Aib2; αMeF(2F)6; αMeL13; Dab16; K17((2-[2-(2-Amino-ethoxy)-ethoxy]-acetyl)2-(γ-Glu)-CO-(CH2)16-CO2H); Aib20; D-Glu24; C-terminal NH2
Ki [1]: 0.0664 nM | Ki [2]: 1.43 nM

B8: Example 208 (peptide)
peptide: YXEGTXTSDYSIXLDEKAQXEFIXYLIEGGPSSGAPPPS
modifications: Aib2; αMeF(2F)6; αMeL13; K17((2-[2-(2-Amino-ethoxy)-ethoxy]-acetyl)2-(γ-Glu)-CO-(CH2)14-CO2H); Aib20; D-Glu24; C-terminal NH2
Ki [1]: 0.0537 nM | Ki [2]: 2.13 nM

B9: Example 160 (peptide)
peptide: YXEGTXTSDXSIXLDEKAQXTFIXYLIEGGPSSGAPPPS
modifications: Aib2; αMeF(2F)6; Aib10; αMeL13; K17((2-[2-(2-Amino-ethoxy)-ethoxy]-acetyl)2-(γ-Glu)-CO-(CH2)18-CO2H); Aib20; D-Glu24; C-terminal NH2
Ki [1]: 5.98 nM | Ki [2]: 14.4 nM

B10: Example 130 (peptide)
peptide: YXEGTXTSDESILLDKKAQXAFIEYLIEGGPSSGAPPPS
modifications: Aib2; αMeF6; K17((2-[2-(2-Amino-ethoxy)-ethoxy]-acetyl)2-(γ-Glu)-CO-(CH2)18-CO2H); Aib20; C-terminal NH2
Ki [1]: 0.177 nM | Ki [2]: 3.66 nM

B11: Example 84 (peptide)
peptide: YXEGTFTSDYSILLDKKAQXAFIXYLIEGGPSSGAPPPS
modifications: Aib2; K17((2-[2-(2-Amino-ethoxy)-ethoxy]-acetyl)2-(γ-Glu)-CO-(CH2)18-CO2H); Aib20; D-Glu24; C-terminal NH2
Ki [1]: 0.143 nM | Ki [2]: 10.2 nM

B12: Example 82 (peptide)
peptide: YXEGTFTSDYSXLLDKKAQXAFIEYLIEGGPSSGAPPPS
modifications: Aib2; D-Ile12; K17((2-[2-(2-Amino-ethoxy)-ethoxy]-acetyl)2-(γ-Glu)-CO-(CH2)18-CO2H); Aib20; C-terminal NH2
Ki [1]: 14.9 nM | Ki [2]: 6.82 nM

B13: Example 139 (peptide)
peptide: YXEGTXTSDYSIXLDKKAQXTFIEYLIEGGPSSGAPPPS
modifications: Aib2; αMeF6; αMeL13; K17((2-[2-(2-Amino-ethoxy)-ethoxy]-acetyl)2-(γ-Glu)-CO-(CH2)18-CO2H); Aib20; C-terminal NH2
Ki [1]: 0.036 nM | Ki [3]: 105 nM
